Results: US20220411516A1 (Amgen, published 2022)

Target: T1, EGFRvIII (Epidermal Growth Factor Receptor Variant III) (human, UniProt P00533 298-1210)
T1 construct: also called Human EFGRvIII; de2-7EGFR
Assay: IHC staining, titration of the primary antibody (5.5, 2.75, 1.375 µg/ml)

binding result: binds
B1: EGFRvIII antibody 1 (antibody, mouse IgG1, kappa, V domains shown)
VH: QVQLVESGGGVVQPGRSLRLSCAASGFTFSSYGMHWVRQAPGKGLEWVAVIWYDGSNKYYVDSVKGRFTISRDNSKNTLYLQMNSLRAEDTAVYYCARDGWQQLAPFDYWGQGTLVTVSA
VL: not shown
notes: also called first antibody; primary antibody
